Values belong to the binder of their own block, whether it stands above or below them.
Tests used:
[1] = biological target: human CD3 on the cell surface (Jurkat recombinant cells; T cells of PBMC) (human, UniProt P07766 23-207; P04234 22-171); experiment: FACS on Jurkat recombinant cells expressing CD3, APC anti-human IgG Fc detection, geometric mean fluorescence
Protocol: (§1) The ability of bispecific antibodies to bind to cell surface antigens was detected by FACS method.
(§2) FACS buffer (98% PBS, 2% FBS) was added into a 96-well U-shaped bottom plate (corning, 3795) to resuspend the cells, the serially diluted antibodies were added, incubated at 4° C. for 1 hour, and the plate was washed with FACS buffer twice. Then APC anti-human IgG Fc Antibody (biolegend, Cat #409306, dilution at 1:50) was added into each well, incubated at 4° C. for 30 minutes, washed twice, the cells were resuspended in FACS buffer, and finally the fluorescence signal values were read by FACS CantoII (BD).

[2] = biological target: T1, Human CD3 antigen for detection (SinoBiological cat #CT038-H2508H); human CD3 epsilon-His and human CD3 … (human, UniProt P07766 23-126; P04234 22-105); experiment: Biacore T200 SPR, bispecific antibody captured, antigen as analyte, 1:1 Langmuir fit
T1 construct: Bought antigen
Protocol: (§3) The detection of antibody affinity to B7H3 and CD3 was performed in the form of capture antibody. BsAb was captured by CM5 biosensor chip (Cat. #BR-1005-30, GE) or Protein A (Cat. #29127556, GE) biosensor chip coupled with Anti-Human IgG Antibody (Cat. #BR-1008-39, Lot. #10260416, GE), and then each antigen flowed through the surface of the chip. The reaction signals were detected in real time with the Biacore T200 instrument to obtain the binding and dissociation curves. After the dissociation of each experimental cycle was completed, the chip was washed and regenerated with regeneration buffer Glycine1.5 (Cat #BR100354, GE) or 3 M MgCl₂ (from Human antibody capture kit, Cat. #BR100839, GE). The data were fitted with the (1:1) Langmuir model using GE Biacore T200 Evaluation version 3.0 software, and the affinity values were obtained.

[3] = biological target: T2, Human B7H3 antigen for detection (SinoBiological cat #11188-H08H) (human, UniProt Q5ZPR3 29-461); experiment: as above
T2 construct: Bought antigen
T2 sequence: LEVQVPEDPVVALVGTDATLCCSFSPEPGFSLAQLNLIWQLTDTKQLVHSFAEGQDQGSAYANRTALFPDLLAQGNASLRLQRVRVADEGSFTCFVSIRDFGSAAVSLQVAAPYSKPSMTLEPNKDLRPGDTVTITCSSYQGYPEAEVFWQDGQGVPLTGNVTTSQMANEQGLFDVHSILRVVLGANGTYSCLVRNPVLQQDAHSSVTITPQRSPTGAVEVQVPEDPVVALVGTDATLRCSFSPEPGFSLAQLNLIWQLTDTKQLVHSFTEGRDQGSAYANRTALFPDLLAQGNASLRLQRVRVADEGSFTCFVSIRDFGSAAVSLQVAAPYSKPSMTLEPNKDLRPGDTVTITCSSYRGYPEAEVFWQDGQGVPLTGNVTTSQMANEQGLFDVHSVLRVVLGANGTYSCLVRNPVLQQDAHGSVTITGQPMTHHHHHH
Protocol: as §3

[4] = biological target: T3, Monkey CD3 antigen for detection (Acro biosystem cat #CDD-C52W4); monkey CD3 epsilon-His and monkey CD3 … (monkey (cyno), UniProt Q95LI5 22-117; Q95LI8 22-105); experiment: as above
T3 construct: Bought antigen
Protocol: as §3

[5] = biological target: T4, Monkey B7H3 antigen for detection (SinoBiological cat #90806-C08H) (monkey (cyno)); experiment: as above
T4 construct: Bought antigen; also called monkey (cyno) B7H3
T4 chain: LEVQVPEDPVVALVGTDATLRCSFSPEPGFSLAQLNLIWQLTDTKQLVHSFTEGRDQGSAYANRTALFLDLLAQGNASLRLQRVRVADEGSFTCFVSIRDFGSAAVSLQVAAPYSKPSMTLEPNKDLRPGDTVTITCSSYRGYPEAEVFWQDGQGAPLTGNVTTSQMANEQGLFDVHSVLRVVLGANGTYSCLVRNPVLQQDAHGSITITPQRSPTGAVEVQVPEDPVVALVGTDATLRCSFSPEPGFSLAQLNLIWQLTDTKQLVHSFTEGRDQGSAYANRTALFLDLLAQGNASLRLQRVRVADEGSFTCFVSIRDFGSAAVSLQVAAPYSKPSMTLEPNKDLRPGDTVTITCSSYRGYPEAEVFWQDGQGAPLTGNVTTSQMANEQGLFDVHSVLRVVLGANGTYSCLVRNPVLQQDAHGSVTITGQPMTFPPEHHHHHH
Protocol: as §3

[6] = biological target: T5, human B7H3 on the cell surface (A498, CT26/hB7H3, U87, Detroit562 cells) (human, UniProt Q5ZPR3 29-534); experiment: cell-based or functional assay
T5 sequence: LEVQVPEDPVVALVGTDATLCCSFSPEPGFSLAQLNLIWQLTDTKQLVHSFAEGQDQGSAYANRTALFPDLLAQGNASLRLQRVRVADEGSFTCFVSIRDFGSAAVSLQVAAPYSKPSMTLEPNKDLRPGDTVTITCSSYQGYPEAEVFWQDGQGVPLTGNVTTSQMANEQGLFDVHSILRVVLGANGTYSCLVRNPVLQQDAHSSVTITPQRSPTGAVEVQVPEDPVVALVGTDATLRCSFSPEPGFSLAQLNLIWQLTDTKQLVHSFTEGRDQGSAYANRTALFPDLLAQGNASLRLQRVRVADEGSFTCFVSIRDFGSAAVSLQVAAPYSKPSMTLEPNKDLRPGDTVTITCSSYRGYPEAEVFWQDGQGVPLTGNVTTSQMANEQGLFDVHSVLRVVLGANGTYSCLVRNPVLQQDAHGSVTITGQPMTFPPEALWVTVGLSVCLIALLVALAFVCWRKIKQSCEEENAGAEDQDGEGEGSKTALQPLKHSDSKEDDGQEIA

[7] = biological target: T5, human B7H3 on the cell surface (A498, …); experiment: FACS on CT26/hB7H3 cells over-expressing human B7H3, APC anti-human IgG Fc detection, geometric mean fluorescence
Protocol: as §1, §2

[8] = biological target: T1, Human CD3 antigen for detection …; experiment: Biacore T200 SPR, bispecific antibody captured, CD3 antigen as analyte, 1:1 Langmuir fit
Protocol: as §3

[9] = biological target: T5, human B7H3 on the cell surface (A498, …); experiment: FACS on A498 cells expressing human B7H3, APC anti-human IgG Fc detection, geometric mean fluorescence
Protocol: as §1, §2

[10] = biological target: T1, Human CD3 antigen for detection …; experiment: Biacore T200 SPR, bispecific antibody captured, CD3 antigen as analyte
Protocol: as §3

T3 sequence (Q95LI5 other isoform, or with tags, fused parts or gaps mutant, chain 1 of 2): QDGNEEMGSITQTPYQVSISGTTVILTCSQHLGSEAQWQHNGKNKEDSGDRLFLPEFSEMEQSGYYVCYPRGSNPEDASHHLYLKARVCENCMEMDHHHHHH
T3 sequence (Q95LI8 other isoform, or with tags, fused parts or gaps mutant, chain 2 of 2): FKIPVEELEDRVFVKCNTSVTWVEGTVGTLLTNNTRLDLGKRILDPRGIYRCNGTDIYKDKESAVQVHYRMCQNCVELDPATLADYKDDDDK
T1 sequence (P07766 other isoform, or with tags, fused parts or gaps H2508H H2508H, chain 1 of 2): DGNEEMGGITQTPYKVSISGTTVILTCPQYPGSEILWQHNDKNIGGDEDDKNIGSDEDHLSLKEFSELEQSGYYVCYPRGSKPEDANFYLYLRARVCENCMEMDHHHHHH
T1 sequence (P04234 other isoform, or with tags, fused parts or gaps H2508H H2508H, chain 2 of 2): as the sequence (Q95LI8 other isoform, or with tags, fused parts or gaps mutant, chain 2 of 2) above, with V5I, K15N, V20I, T32S, N33D, N34I, A64T, N74S, L83V counted along it
Sequence of human CD3 on the cell surface (Jurkat recombinant cells; T cells of PBMC) (P07766 23-207, chain 1 of 2): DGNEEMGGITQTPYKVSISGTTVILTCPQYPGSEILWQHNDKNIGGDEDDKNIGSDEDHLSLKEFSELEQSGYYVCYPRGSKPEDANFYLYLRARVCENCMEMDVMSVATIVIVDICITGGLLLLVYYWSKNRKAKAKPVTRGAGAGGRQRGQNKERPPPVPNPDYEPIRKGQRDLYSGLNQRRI
Sequence of human CD3 on the cell surface (Jurkat recombinant cells; T cells of PBMC) (P04234 22-171, chain 2 of 2): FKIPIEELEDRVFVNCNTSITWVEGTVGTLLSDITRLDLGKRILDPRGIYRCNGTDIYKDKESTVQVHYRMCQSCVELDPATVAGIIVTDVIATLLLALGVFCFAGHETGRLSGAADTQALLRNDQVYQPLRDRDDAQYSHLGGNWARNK

B1: bispecific antibody 118 (AFF 6-3) (bispecific antibody)
chain 1: not shown
chain 2: QTVVTQEPSFSVSPGGTVTLTCGLSSGSVSTSHYPSWYQQTPGQAPRMLIYNTNTRSSGVPDRFSGSILGNKAALTITGAQADDESDYYCAIHVDRDIWVFGGGTKLTVLGGGGSGGGGSGGGGSQVQLVQSGGGVVQPGTSLRLSCAASGFIFSSSAMHWVRQAPGKGLEWVAVISYDGSNKYYVDSVKGRFTISRDNSKNTLYLQMNSLRAEDTAVYYCARSARLYASFDYWGQGALVTVSSGGGDKTHTCPPCPAPEAAGGPSVFLFPPKPKDTLMISRTPEVTCVVVDVSHEDPEVKFNWYVDGVEVHNAKTKPREEQYNSTYRVVSVLTVLHQDWLNGKEYKCKVSNKALPAPIEKTISKAKGQPREPQVCTLPPSREEMTKNQVSLSCAVKGFYPSDIAVEWESNGQPENNYKTTPPVLDSDGSFFLVSKLTVDKSRWQQGNVFSCSVMHEALHNHYTQKSLSLSPGK
notes: B7H3 bivalent CD3-B7H3 bispecific antibody, CD3 VH HRH-3, CD3 scFv at the N-terminus
EC50 (read off the curve) [1]: ~100 nM
Kd [2]: 66.1 nM
Kd [3]: 5.33 nM
Kd [4]: 1.59 nM
Kd [5]: 7.31 nM
Emax (%), PBMC-mediated killing of A498 cells (B7H3 high) [6]: 65.9%
Emax (%), PBMC-mediated killing of Detroit562 cells (B7H3 low) [6]: 39.2%
Emax (%), PBMC-mediated killing of U87 cells (B7H3 intermediate) [6]: 67.2%
IC50 (nM), PBMC-mediated killing of A498 cells (B7H3 high) [6]: 0.34 nM
IC50 (nM), PBMC-mediated killing of Detroit562 cells (B7H3 low) [6]: 14.5 nM
IC50 (nM), PBMC-mediated killing of U87 cells (B7H3 intermediate) [6]: 2.4 nM
EC50 (read off the curve) [7]: ~1 nM

B2: bispecific antibody 127 (AFF3-3) (bispecific antibody)
chain 1: not shown
chain 2: B1 chain 2
notes: B7H3 bivalent CD3-B7H3 bispecific antibody, CD3 VH HRH-3
Kd [8]: 97.2 nM
Kd [2]: 84.7 nM
Kd [3]: 4.29 nM
Kd [4]: 1.24 nM
Kd [5]: 5.61 nM
Emax (%), PBMC-mediated killing of A498 cells (B7H3 high) [6]: 67.5%
Emax (%), PBMC-mediated killing of Detroit562 cells (B7H3 low) [6]: 26.5%
Emax (%), PBMC-mediated killing of U87 cells (B7H3 intermediate) [6]: 69.5%
IC50 (nM), PBMC-mediated killing of A498 cells (B7H3 high) [6]: 2.4 nM
IC50 (nM), PBMC-mediated killing of Detroit562 cells (B7H3 low) [6]: 15.8 nM
IC50 (nM), PBMC-mediated killing of U87 cells (B7H3 intermediate) [6]: 8.2 nM
EC50 (read off the curve) [7]: ~2 nM
EC50 (read off the curve) [9]: ~40 nM

More lines, main results first:

EC50 (read off the curve) [1]: ~300 nM
Kd [2]: 85.3 nM
Kd [3]: 5.35 nM
Kd [4]: 0.813 nM
Kd [5]: 6.9 nM
EC50 (read off the curve) [7]: ~2 nM
EC50 (read off the curve) [9]: ~30 nM
B3: bispecific antibody 132 (AFF3-3SS) (bispecific antibody)
chain 1: not shown
chain 2: B1 chain 2
Emax (%), PBMC-mediated killing of A498 cells (B7H3 high) [6]: 66.4%
Emax (%), PBMC-mediated killing of Detroit562 cells (B7H3 low) [6]: 15.2%
Emax (%), PBMC-mediated killing of U87 cells (B7H3 intermediate) [6]: 67.6%
IC50 (nM), PBMC-mediated killing of A498 cells (B7H3 high) [6]: 2.94 nM
IC50 (nM), PBMC-mediated killing of Detroit562 cells (B7H3 low) [6]: 15.7 nM
IC50 (nM), PBMC-mediated killing of U87 cells (B7H3 intermediate) [6]: 11.9 nM

binding result [10]: no binding
B4: bispecific antibody 155 (AFF3-5) (bispecific antibody)
chain 1: not shown
chain 2: B1 chain 2
notes: B7H3 bivalent CD3-B7H3 bispecific antibody, CD3 VH HRH-5

binding result [10]: no binding
B5: bispecific antibody 156 (AFF3-6) (bispecific antibody)
chain 1: not shown
chain 2: B1 chain 2
notes: B7H3 bivalent CD3-B7H3 bispecific antibody, CD3 VH HRH-6

Source: patent US20220242953A1 (JIANGSU HENGRUI MEDICINE, published 2022)
